Test results as given in US20180195054A1 (Stanford University, published 2018).
Changes are numbered by the printed parent chain. Names and notes keep the numbering of the source.

Legend:
[1] = target: biotinylated CD47 IgSF domain (human CD47 residues 19-135 / residues 1-117, C15G) (human) (UniProt Q08722); assay: SPR (Biacore T100, 25 C), biotinylated CD47 captured on SA chip, SIRPα variant in solution, 1:1 Langmuir model
[2] = target: human CD47 on the surface of cancer cells (Raji, Jurkat, DLD-1) (human) (UniProt Q08722); assay: flow cytometry on Jurkat cells, competition with Alexa Fluor 647 wild-type SIRPα tetramer (50 nM per paragraph 133)
[3] = target: human CD47 on the surface of cancer cells (Raji, Jurkat, DLD-1) (human) (UniProt Q08722); assay: flow cytometry on Raji cells, competition with 100 nM Alexa Fluor 647 WT SIRPα tetramer
[4] = target: T1, human CD47 on the surface of cancer cells (Raji, Jurkat, DLD-1) (human, UniProt Q08722 19-323); assay: flow cytometry on Jurkat cells, competition with Alexa Fluor 647 wild-type SIRPα tetramer (50 nM per paragraph 133)
T1 construct: whole, on cells; also called cell-surface CD47; CD47 on cancer cells
Procedure: (§1) GFP+ Jurkat cells were washed in PBS then incubated with titrating concentrations of biotinylated SIRPα variants for 30 minutes on ice. Wild-type SIRPα tetramer was pre-formed by incubating a 4:1 molar ratio of biotinylated wild-type SIRPα with streptavidin for 15 minutes on ice. […] Cells were washed twice then analyzed for SIRPα variant binding by flow cytometry using an Accuri C6 flow cytometer. To assess blocking of wild-type SIRPα to cD47, 50 nM wild-type SIRPα tetramer was incubated with titrating concentrations of CD47 blocking agents for 30 minutes on ice. Anti-CD47 clone B6H12 (eBioscience) was used as a positive control for blocking. Data were analyzed using GraphPad Prism 5. Maximal SIRPα variant binding represents the percentage of the maximal mean fluorescence intensity measured for each variant.

[5] = target: T2, biotinylated CD47 IgSF domain (human CD47 residues 19-135 / residues 1-117, C15G) (human, UniProt Q08722 19-135, biotinylated with BirA ligase at the C-terminal biotin acceptor peptide tag); assay: SPR (Biacore T100, 25 C), biotinylated CD47 captured on SA chip, SIRPα variant in solution, 1:1 Langmuir model
T2 construct: range 19-135; Captured on a Biacore SA chip for SPR; C15G is counted on the mature domain (1-117), not on the precursor; also called immobilized CD47
Procedure: SPR experiments were conducted on a Biacore T100 instrument at 25° C. Experiments used a Biacore SA sensor chip (GE Healthcare) to capture biotinylated CD47 at a surface density of approximately 150 RU. An unrelated biotinylated protein was immobilized as a reference surface for the SA sensor chip with matching RU to the experimental surface. Serial dilutions of unbiotinylated SIRPα variants in the running buffer [1×HBS-P (GE Healthcare)] were flowed over the chip at a rate of 50 μL/min. CD47 was regenerated using three 30 second injections of 2M MgCl₂. Data was analyzed using the Biacore T100 evaluation software version 2.0 with a 1:1 Langmuir binding model.
Experiments were conducted with a Biacore T100 at 25° C. Protein concentrations were quantified by 280 nm absorbance with a Nanodrop2000 spectrometer (Thermo Scientific). A Biacore SA sensor chip (GE Healthcare) was used to capture biotinylated CD47 (Rₘₐₓ ˜150 RU). An unrelated biotinylated protein was immobilized with an RU value matching that of the […] to control for nonspecific binding. Measurements were made with serial dilutions of the SIRPα variants in HBS-P+ buffer (GE Healthcare). The CD47 surface was regenerated by three 60 second injections of 2 M MgCl₂. All data were analyzed with the Biacore T100 evaluation software version 2.0 with a 1:1 Langmuir binding model.

[6] = target: T1, human CD47 on the surface of cancer …; assay: flow cytometry on Raji cells, competition with 100 nM Alexa Fluor 647 WT SIRPα tetramer
[7] = target: T1, human CD47 on the surface of cancer …; assay: flow cytometry on DLD-1 cells, detection with goat anti-human IgG
Procedure: Varying concentrations of biotinylated SIRPα monomers, SIRPα-hlgG4 fusion proteins, or anti-CD47 antibodies were incubated with cancer cells as indicated. […] Binding of SIRPα-hlgG4 fusion proteins or anti-CD47 antibodies was detected with goat anti-human IgG antibody (Invitrogen) and was analyzed on an LSRFortessa with high-throughput sampler (BD Biosciences). Data represent the mean fluorescence intensity normalized to maximal binding for each class of reagents, and points were fit to sigmoidal dose-response curves using Prism 5 (Graphpad).

[8] = target: T3, mouse CD47 displayed on the surface of yeast (mouse, UniProt Q61735 19-133, limits assumed); assay: flow cytometry on yeast displaying mouse CD47
T3 sequence (looked up): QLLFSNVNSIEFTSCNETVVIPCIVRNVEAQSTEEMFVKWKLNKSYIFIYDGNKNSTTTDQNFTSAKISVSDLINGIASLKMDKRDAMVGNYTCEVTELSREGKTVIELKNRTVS

[9] = target: T4, mouse CD47 on mouse cells (CT26 colon cancer cells; mouse blood cells) (mouse, UniProt Q61735 19-303); assay: flow cytometry on mouse CT26 colon cancer cells
T4 construct: whole, on cells
T4 sequence (looked up): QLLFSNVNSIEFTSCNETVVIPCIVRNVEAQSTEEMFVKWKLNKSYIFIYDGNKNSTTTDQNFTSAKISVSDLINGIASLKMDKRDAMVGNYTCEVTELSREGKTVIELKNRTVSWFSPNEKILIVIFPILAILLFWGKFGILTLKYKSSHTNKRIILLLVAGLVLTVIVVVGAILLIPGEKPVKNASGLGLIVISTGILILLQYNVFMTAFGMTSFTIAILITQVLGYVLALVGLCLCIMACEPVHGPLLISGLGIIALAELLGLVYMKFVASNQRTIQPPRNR

[10] = target: T1, human CD47 on the surface of cancer …; assay: flow cytometry on Jurkat cells, biotinylated SIRPα variant detected with Alexa Fluor 647 streptavidin
Procedure: as §1

Molecule: WT allele 2 (from UniProt P78324) (receptor)
- Kd [1]: 452 nM

Molecule: Anti-CD47 (B6H12) (antibody)
- IC50 (read off the curve) [2]: 80 nM

Molecule: Fab fragments of anti-CD47 antibody clone B6H12
- IC50 (read off the curve) [3]: 100 nM

B1: first generation SIRPα mutant 1A5 monomer (designed binder)
chain: EEEVQVIQPDKSVSVAAGESAILHCTLTSLIPVGPIQWFRGAGPARVLIYNQRQGHFPRVTTVSEGTRRENMDFSISISNITPADAGTYYCIKFRKGSPDTEFKSGAGTELSVRAKPSHHHHHHHH
- IC50 (read off the curve) [4]: ~80 nM
- Kd [5]: 3.6 nM

B2: high-affinity SIRPα variant FD6 monomer (d1 domain) (designed binder)
chain: B1 chain with V6I, L27I, I31F, H56P, V63I, G66T
notes: Second generation variant of human SIRPα allele 1 d1
- IC50 (read off the curve) [4]: ~3 nM
- Kd [5]: 0.0413 nM
- IC50 (read off the curve) [6]: ~2 nM

B3: FD6-hIgG4 (FD6 d1 domain fused to hinge, CH2 and CH3 of human IgG4) (Fc fusion)
chain: EEEVQIIQPDKSVSVAAGESAILHCTITSLFPVGPIQWFRGAGPARVLIYNQRQGPFPRVTTISETTRRENMDFSISISNITPADAGTYYCIKFRKGSPDTEFKSGAGTELSVRAKPSAAAPPCPPCPAPEFLGGPSVFLFPPKPKDTLMISRTPEVTCVVVDVSQEDPEVQFNWYVDGVEVHNAKTKPREEQFNSTYRVVSVLTVLHQDWLNGKEYKCKVSNKGLPSSIEKTISKAKGQPREPQVYTLPPSQEEMTKNQVSLTCLVKGFYPSDIAVEWESNGQPENNYKTTPPVLDSDGSFFLYSRLTVDKSRWQEGNVFSCSVMHEALHNHYTQKSLSLSPGK
notes: also called FD6-hlgG4; FD-hlgG4
- IC50 (read off the curve) [4]: ~2 nM
- EC50 (read off the curve) [7]: ~5 nM

B4: CV1-hIgG4 (CV1 d1 domain fused to hinge, CH2 and CH3 of human IgG4 S228P) (Fc fusion)
chain: EEELQIIQPDKSVLVAAGETATLRCTITSLFPVGPIQWFRGAGPGRVLIYNQRQGPFPRVTTVSDTTKRNNMDFSIRIGNITPADAGTYYCIKFRKGSPDDVEFKSGAGTELSVRAKPSAAAPPCPPCPAPEFLGGPSVFLFPPKPKDTLMISRTPEVTCVVVDVSQEDPEVQFNWYVDGVEVHNAKTKPREEQFNSTYRVVSVLTVLHQDWLNGKEYKCKVSNKGLPSSIEKTISKAKGQPREPQVYTLPPSQEEMTKNQVSLTCLVKGFYPSDIAVEWESNGQPENNYKTTPPVLDSDGSFFLYSRLTVDKSRWQEGNVFSCSVMHEALHNHYTQKSLSLSPGK
notes: also called CV1-hlgG4
- EC50 (read off the curve) [7]: ~4 nM

B5: high-affinity SIRPα variant CV1 monomer (consensus variant 1, d1 domain) (designed binder)
chain: EEELQIIQPDKSVLVAAGETATLRCTITSLFPVGPIQWFRGAGPGRVLIYNQRQGPFPRVTTVSDTTKRNNMDFSIRIGNITPADAGTYYCIKFRKGSPDDVEFKSGAGTELSVRAKPSHHHHHHHH
notes: Nine consensus substitutions grafted onto wild-type SIRPα allele 2
- EC50 (read off the curve) [8]: ~20 nM
- Kd [5]: 0.0111 nM
- IC50 (read off the curve) [6]: ~0.8 nM

B6: biotinylated FD6 monomer (designed binder)
chain: EEEVQIIQPDKSVSVAAGESAILHCTITSLFPVGPIQWFRGAGPARVLIYNQRQGPFPRVTTISETTRRENMDFSISISNITPADAGTYYCIKFRKGSPDTEFKSGAGTELSVRAKPSGLNDIFEAQKIEWHEHHHHHHHH
modifications: biotinylated at the C-terminal biotin acceptor peptide tag
- EC50 (read off the curve) [9]: ~300 nM

B7: biotinylated high-affinity SIRPα variant FA4 monomer (designed binder)
chain: B6 chain with V4L, F31T, I63V, T66G, F103V
modifications: biotinylated at the C-terminal biotin acceptor peptide tag
- binding result [10]: binds

B8: FA4 (designed binder)
SIRPα d1 domain variant: EEELQIIQPDKSVSVAAGESAILHCTITSLTPVGPIQWFRGAGPARVLIYNQRQGPFPRVTTVSEGTRRENMDFSISISNITPADAGTYYCIKFRKGSPDTEVKSGAGTELSVRAKPS
notes: also called FA4 mutant d1 domain; FA4 monomer (unbiotinylated, SPR analyte)
- Kd [5]: 0.034 nM

B9: 2F5 (designed binder)
SIRPα d1 domain variant: B8 SIRPα d1 domain variant with L4V, I6L, I27V, T31F, Q54E, R68K
notes: also called 2F5 mutant d1 domain
- Kd [5]: 0.276 nM

B10: 1D4 (designed binder)
SIRPα d1 domain variant: B8 SIRPα d1 domain variant with I6V, T31I, V47E, Q54E, P56H, G66T, I92V
notes: First generation variant, unbiotinylated monomer in SPR; also called 1D4 mutant d1 domain
- Kd [5]: 11.6 nM

B11: 2B5 (designed binder)
SIRPα d1 domain variant: B8 SIRPα d1 domain variant with L4I, I6V, A21V, L23I, I27V, T31F, P56R, R68K, I92V, F94V
notes: also called 2B5 mutant d1 domain
- Kd [5]: 0.423 nM

B12: 2A10 (designed binder)
SIRPα d1 domain variant: B8 SIRPα d1 domain variant with T31S, R68K, F94L, V103F
notes: also called 2A10 mutant d1 domain
- Kd [5]: 0.5 nM

B13: 2D3 (designed binder)
SIRPα d1 domain variant: B8 SIRPα d1 domain variant with L4V, A21V, V47L, Q54E, G66T, I92V, F94L, V103F
notes: also called 2D3 mutant d1 domain
- Kd [5]: 0.847 nM

B14: 2A2 (designed binder)
SIRPα d1 domain variant: B8 SIRPα d1 domain variant with L4V, A21I, I27V, T31F, Q54E, P56R, F94L, V103F
notes: also called 2A2 mutant d1 domain
- Kd [5]: 0.402 nM

B15: FB3 (designed binder)
SIRPα d1 domain variant: B8 SIRPα d1 domain variant with T31F, V47L, G66T, R68K, I92V, V103F
notes: also called FB3 mutant d1 domain
- Kd [5]: 0.0699 nM
